Test results: patent US20210317186A1 (BRIGHAM AND WOMEN S HOSPITAL, published 2021)

T1: endogenous CD5L (mouse; in serum or secreted by bone marrow derived dendritic cells) (mouse, UniProt Q9QWK4 22-352)
T1 construct: also called natural CD5L; AIM
T1 sequence (looked up): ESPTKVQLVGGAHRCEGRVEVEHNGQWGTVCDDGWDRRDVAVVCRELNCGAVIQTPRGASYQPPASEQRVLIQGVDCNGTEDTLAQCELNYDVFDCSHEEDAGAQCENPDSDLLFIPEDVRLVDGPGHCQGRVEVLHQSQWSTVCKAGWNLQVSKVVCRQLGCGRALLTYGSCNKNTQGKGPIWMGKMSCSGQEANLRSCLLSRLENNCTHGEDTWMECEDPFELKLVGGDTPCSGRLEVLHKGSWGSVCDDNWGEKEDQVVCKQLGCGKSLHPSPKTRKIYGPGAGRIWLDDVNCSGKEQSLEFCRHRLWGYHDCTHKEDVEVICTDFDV


What was measured:
[1] = target: the molecule itself; assay: size exclusion chromatography (Superdex S200) of His-tagged CD5L from 293E supernatant
Protocol: Recombinant protein CD5L monomer and homodimer was purified from the supernatant of 293E cells transfected with a CD5L expression vector. Recombinant mCD5L:p40 was recovered from the supernatant of 293E cells transfected with the CD5L:p40 expression vector. After harvesting transfected 293E cells by centrifugation, the protein was affinity purified from the supernatant using Ni Sepharose 6 Fast Flow resin (GE Healthcare). After binding the protein to resin, the resin was washed with 20 mM Tris, 0.3M NaCl, pH 8.0 and the protein eluted using 20 mM Tris, 0.3M NaCl, 0.4M Imidazole, pH 8.0. The protein was further polished by a […] sizing exclusion column (GE Healthcare) in buffer 10 mM NaHPO4, 0.15M NaCl, pH 7.2.

[2] = target: T1, endogenous CD5L (mouse; in serum or …); assay: sandwich ELISA on mouse serum, capture with anti-IL-12 p40, detection with anti-CD5L
Protocol: Serum was collected kinetically from wildtype and Cd5l^{-/-} mice with DSS-induced colitis (2% DSS in drinking water for 6 days followed by 7 days of normal water) and the level of CD5L:p40 was measured using an ELISA assay. In the ELISA assay anti-IL-12 p40 was used to capture the heterodimer and enzyme linked anti-CD5L was used to detect the heterodimer.
Preliminary screens were conducted to determine what signals could induce CD5L homodimer and CD5L:p40 heterodimer. In particular, bone marrow derived dendritic cells were stimulated with TLR ligands for 24 hours and the supernatant was analyzed for CD5L:p40 secretion by ELISA.

Row | Binder | binding result [1] | binding result [2]
1 | recombinant CD5L with His tag at C-terminus (mouse, mCD5L) (ligand, Made by Biolegend in 293E cells; The transfection gave a monomer and a homodimer fraction on size exclusion; also called soluble CD5L; sCD5L; not shown: His tag at C-terminus) ESPTKVQLVGGAHRCEGRVEVEHNGQWGTVCDDGWDRRDVAVVCRELNCGAVIQTPRGASYQPPASEQRVLIQGVDCNGTEDTLAQCELNYDVFDCSHEEDAGAQCENPDSDLLFIPEDVRLVDGPGHCQGRVEVLHQSQWSTVCKAGWNLQVSKVVCRQLGCGRALLTYGSCNKSTQGKGPIWMGKMSCSGQEANLRSCLLSRLENNCTHGEDTWMECEDPFELKLVGGDTPCSGRLEVLHKGSWGSVCDDNWGEKEDQVVCKQLGCGKSLHPSPKTRKIYGPGAGRIWLDDVNCSGKEQSLEFCRHRLWGYHDCTHKEDVEVICTDFDV | binds | 
2 | endogenous p40 (IL-12 p40, Il12b; mouse) (ligand, UniProt P43432 23-335, looked up, also called interleukin 12B) MWELEKDVYVVEVDWTPDAPGETVNLTCDTPEEDDITWTSDQRHGVIGSGKTLTITVKEFLDAGQYTCHKGGETLSHSHLLLHKKENGIWSTEILKNFKNKTFLKCEAPNYSGRFTCSWLVQRNMDLKFNIKSSSSSPDSRAVTCGMASLSAEKVTLDQRDYEKYSVSCQEDVTCPTAEETLPIELALEARQQNKYENYSTSFFIRDIIKPDPPKNLQMKPLKNSQVEVSWEYPDSWSTPHSYFSLKFFVRIQRKKEKMKETEEGCNQKGAFLVEKTSTEVQCKGGNVCVQAQDRYYNSSCSKWACVPCRVRS |  | binds
